Results on one molecule are retold here after patent publication US20070015194A1 (RAMOT AT TEL AVIV UNIVERSITY, published 2007).

The assay concerns the target T1, CC2D1A protein (coiled-coil and C2 domain containing 1A), wild type, human, GenBank Accession No. NP-060191 (human, UniProt Q6P1N0 1-951).
T1 construct: Endogenous protein in lysates of lymphoblast or lymphoblastoid cells from unaffected individuals; It is the long isoform of 951 amino acids, seen as a band of about 104 kDa; also called FLJ20241; wild type protein
T1 sequence: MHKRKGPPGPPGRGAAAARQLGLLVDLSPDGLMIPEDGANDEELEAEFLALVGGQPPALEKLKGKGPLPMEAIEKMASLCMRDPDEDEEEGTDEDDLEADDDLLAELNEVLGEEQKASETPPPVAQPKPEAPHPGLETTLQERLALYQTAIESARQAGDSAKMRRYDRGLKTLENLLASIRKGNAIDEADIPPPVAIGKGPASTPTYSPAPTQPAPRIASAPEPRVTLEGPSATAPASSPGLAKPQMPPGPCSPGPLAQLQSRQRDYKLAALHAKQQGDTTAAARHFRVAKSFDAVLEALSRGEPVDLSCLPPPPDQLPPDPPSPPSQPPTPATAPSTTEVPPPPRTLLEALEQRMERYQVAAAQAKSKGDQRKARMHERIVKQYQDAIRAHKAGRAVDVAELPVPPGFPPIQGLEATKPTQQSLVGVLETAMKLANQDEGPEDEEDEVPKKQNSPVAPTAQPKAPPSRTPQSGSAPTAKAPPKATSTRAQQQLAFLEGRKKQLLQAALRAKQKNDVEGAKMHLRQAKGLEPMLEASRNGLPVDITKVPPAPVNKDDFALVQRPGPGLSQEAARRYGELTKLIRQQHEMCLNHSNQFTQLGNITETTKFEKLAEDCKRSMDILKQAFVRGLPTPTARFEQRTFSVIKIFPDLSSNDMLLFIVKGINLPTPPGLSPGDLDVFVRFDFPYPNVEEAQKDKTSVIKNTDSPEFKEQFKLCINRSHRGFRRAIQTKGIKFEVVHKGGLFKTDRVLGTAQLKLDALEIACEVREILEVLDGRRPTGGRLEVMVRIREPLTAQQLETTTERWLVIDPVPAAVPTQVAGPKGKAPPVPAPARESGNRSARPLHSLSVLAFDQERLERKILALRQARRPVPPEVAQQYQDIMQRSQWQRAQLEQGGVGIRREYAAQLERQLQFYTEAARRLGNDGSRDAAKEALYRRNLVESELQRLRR
The experiment in a line: co-immunoprecipitation of endogenous proteins from control lymphoblastoid cell extracts with anti-CC2D1A antibody, Western blot with anti-p50 (data not shown). The protocol:
Western blot—Lymphoblast cell proteins were subjected to Western blot analysis using the CC2D1A antibody. Briefly, cells were washed twice with PBS and lysed at 4° C. with lysis buffer (0.6% NP40 and protease inhibitors). After 15 minutes of incubation, cell lysates were centrifuged for 5 minutes at 14,000 rpm and supernatants were collected. Protein concentrations were determined using the BCA Protein Assay Reagent Kit (PIERCE). Whole-cell proteins (approximately 20 μg) were subjected to 7.5% SDS-PAGE and transferred to nitrocellulose membranes. The membranes were blocked for 30 minutes at room temperature with 5% skim milk in Tris-buffer (10 mM Tris, 150 mM NaCl, and 0.1% Tween-20) and subsequently incubated with anti-CC2D1A rabbit polyclonal antibody (BL695, Bethyl laboratories) diluted 1:20000, rabbit polyclonal anti-emerin (sc-15378, Santa Cruz Biotechnology) diluted 1:5000, mouse monoclonal antibody anti-NF-κB p50 (sc-8414, Santa Cruz Biotechnology) diluted 1:1000 or mouse monoclonal antibody p65 (sc-8008, Santa Cruz Biotechnology) diluted 1:5000. After washing and subsequent incubation for 1 hour with horseradish peroxidase coupled to anti-rabbit IgG or mouse IgG respectively (Jackson ImmunoResearch Laboratories, West Grove, Pa.), immunoreactive proteins were visualized by an ECL (enhanced chemiluminescence super signal) Detection Kit (PIERCE). […]
On the technique in general: In western blotting, separated proteins are transferred to a membrane and probed.

B1: p50 subunit of NF-κB (other, human, UniProt P19838 1-433, looked up)
chain: MAEDDPYLGRPEQMFHLDPSLTHTIFNPEVFQPQMALPTDGPYLQILEQPKQRGFRFRYVCEGPSHGGLPGASSEKNKKSYPQVKICNYVGPAKVIVQLVTNGKNIHLHAHSLVGKHCEDGICTVTAGPKDMVVGFANLGILHVTKKKVFETLEARMTEACIRGYNPGLLVHPDLAYLQAEGGGDRQLGDREKELIRQAALQQTKEMDLSVVRLMFTAFLPDSTGSFTRRLEPVVSDAIYDSKAPNASNLKIVRMDRTAGCVTGGEEIYLLCDKVQKDDIQIRFYEEEENGGVWEGFGDFSPTDVHRQFAIVFKTPKYKDINITKPASVFVQLRRKSDLETSEPKPFLYYPEIKDKEEVQRKRQKLMPNFSDSFGGGSGAGAGGGGMFGSGGGGGGTGSTGPGYSFPHYGFPTYGGITFHPGTTKSNAGMKHG
notes: Endogenous protein; also called NF-κB p50
Take B1: the binding result is “no binding”.
